{"source": "patent US20170356903", "about": "“OLIGONUCLEOTIDE PROBES AND USES THEREOF” (Caris Science, Inc., published 2017)", "target": "Argonaute-2 (hAgo2) (Homo sapiens, UniProt Q9UKV8 Q9UKV8:1-859)", "sequence (Q9UKV8 whole entry, one chain of several)": "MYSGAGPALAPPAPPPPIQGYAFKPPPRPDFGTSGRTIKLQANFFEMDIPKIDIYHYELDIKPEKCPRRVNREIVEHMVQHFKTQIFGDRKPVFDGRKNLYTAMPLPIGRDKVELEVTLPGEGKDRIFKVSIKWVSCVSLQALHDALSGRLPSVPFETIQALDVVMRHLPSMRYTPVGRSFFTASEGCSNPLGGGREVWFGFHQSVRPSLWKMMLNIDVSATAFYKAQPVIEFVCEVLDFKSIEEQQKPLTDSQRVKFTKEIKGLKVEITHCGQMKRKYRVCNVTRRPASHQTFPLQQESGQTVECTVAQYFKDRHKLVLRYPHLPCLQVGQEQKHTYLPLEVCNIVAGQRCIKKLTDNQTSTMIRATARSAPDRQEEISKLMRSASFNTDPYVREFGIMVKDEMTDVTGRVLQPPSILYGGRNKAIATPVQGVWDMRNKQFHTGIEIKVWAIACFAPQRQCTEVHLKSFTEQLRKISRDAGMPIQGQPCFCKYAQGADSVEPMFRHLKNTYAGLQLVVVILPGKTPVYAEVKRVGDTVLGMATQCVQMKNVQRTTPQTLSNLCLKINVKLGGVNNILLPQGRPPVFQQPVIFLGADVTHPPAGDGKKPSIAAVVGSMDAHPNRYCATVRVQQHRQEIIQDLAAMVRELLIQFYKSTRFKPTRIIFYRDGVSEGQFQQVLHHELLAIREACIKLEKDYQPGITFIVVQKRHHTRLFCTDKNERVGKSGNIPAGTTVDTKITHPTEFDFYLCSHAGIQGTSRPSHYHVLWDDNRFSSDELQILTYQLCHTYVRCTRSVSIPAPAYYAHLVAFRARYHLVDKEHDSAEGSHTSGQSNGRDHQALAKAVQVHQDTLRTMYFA", "assay": "EMSA; DNA cariMir co-migrates with Ago2-miR complex", "settings": "tags: expressed in sf9 insect cells, endogenous insect miRs co-purify; label: fluorescein", "procedure": "Recombinant hAgo2 (Creative Biomart) was preloaded with synthetic miR guide in cleavage buffer (150 mM NaCl, 5 mM MgCl₂, 2.5% glycerol, 0.05% Tween-20, 10 mM Tris-HCl, pH 7.4) for 10-20 min at room temperature, followed by addition of target cariMir. Reactions were stopped by addition of gel loading buffer and immediately resolved by non-denaturing PAGE using 10% TBE gels (Life Technologies). Gels were stained with SYBR Green I and imaged with a PXi gel imager (Syngene). Gel densitometric analysis was performed using Image J and data were plotted in Prism 6 (GraphPad).\nWhen cariMirs were mixed with recombinant Ago2 pre-loaded with synthetic miRs, cariMirs were cleaved producing the expected 5′ and 3′ cleavage products (see FIG. 14B), consistent with miR-guided Ago2 endonucleolytic action subsequent to specific hybridization of cariMir and miR within Ago2. […] Various components of the method are shown in the lanes of the gel as indicated above the gel. In the rightmost lane on the gel image (labeled “miR+Ago2+cariMir”), all components are added to allow potential Ago-mediated cleavage of the cariMir to occur (see FIG. 14A). The amounts of the various components in the reaction mixture are indicated to the left of the gel. […]", "data": [{"binder": "miR guide ; cariMir target (ssRNA ; ssDNA, 5'-phosphate, internal fluorescein-dT) RNA: UAGAGGUACGUGCUGAGGCUU DNA: CTAGCATGACTGCAGTACGTCACTGCAGGCCTCAGCACGTACCTCTATAACCGCCCTGTCTCTTATACACATCTGACGCTGCCGACGA", "values": [{"measurement": "binding result", "result": "binds"}]}]}
